We go through eight molecules from article PMC8245648, “The R2R3-type MYB transcription factor MdMYB90-like is responsible for the enhanced skin color of an apple bud sport mutant”.

Series [1] has as its target T1, MdMYB90-like (Malus domestica (Fuji apple / M_Fuji …, UniProt A0A498J9W0 1-206)).
T1 sequence: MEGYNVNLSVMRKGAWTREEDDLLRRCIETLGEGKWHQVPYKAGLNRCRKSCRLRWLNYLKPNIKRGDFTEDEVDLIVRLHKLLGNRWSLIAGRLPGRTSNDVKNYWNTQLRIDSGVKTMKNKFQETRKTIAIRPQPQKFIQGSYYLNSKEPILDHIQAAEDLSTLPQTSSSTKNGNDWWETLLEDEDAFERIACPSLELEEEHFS
Put plainly: competition; unlabeled mutant did not reduce binding to N1; EMSA, Beyotime Chemiluminescent EMSA Kit, 1x kit binding buffer, 10 uL total; salt, pH and temperature not stated. The settings on record: protein: recombinant; tags: MBP (pMAL-c5X fusion); blunt.

Series [2] deals with T1, MdMYB90-like. Kind of series: EMSA; EMSA, Beyotime Chemiluminescent EMSA Kit, 1x kit binding buffer, 10 uL total; salt, pH and temperature not stated. The note with it: protein: recombinant; tags: MBP (pMAL-c5X fusion); label: biotin; blunt. (In general: A gel shift assay detects complexes by their altered migration in electrophoresis.)
The target in series [3] is T1, MdMYB90-like. Kind of series: competition; unlabeled mutant did not reduce binding to N5; EMSA, Beyotime Chemiluminescent EMSA Kit, 1x kit binding buffer, 10 uL total; salt, pH and temperature not stated. The note with it: protein: recombinant; tags: MBP (pMAL-c5X fusion); blunt.
Series [4] concerns the target T1, MdMYB90-like. Put plainly: competition; unlabeled mutant did not reduce binding to N3; EMSA, Beyotime Chemiluminescent EMSA Kit, 1x kit binding buffer, 10 uL total; salt, pH and temperature not stated. The settings on record: protein: recombinant; tags: MBP (pMAL-c5X fusion); blunt.
For series [5], the target named is T1, MdMYB90-like. Kind of series: competition; unlabeled mutant did not reduce binding to N7; EMSA, Beyotime Chemiluminescent EMSA Kit, 1x kit binding buffer, 10 uL total; salt, pH and temperature not stated. The settings on record: protein: recombinant; tags: MBP (pMAL-c5X fusion); blunt.

B1: CHSm probe (dsDNA)
DNA 1: GACTAATTTTGGTAACTCCCAAAGT
DNA 2: ACTTTGGGAGTTACCAAAATTAGTC
Regarding B1, in the series with MdMYB90-like [1], the binding result is “no binding”.

B2: UFGT probe (dsDNA)
DNA 1: TGGTACAAACAACTGCAATAAAATA
DNA 2: TATTTTATTGCAGTTGTTTGTACCA
In the case of B2, the binding result in the series with MdMYB90-like [2] is recorded as “binds”.

B3: BHLH3m probe (dsDNA)
DNA 1: CCTGCTCACTGGTAAATCAAACCCA
DNA 2: TGGGTTTGATTTACCAGTGAGCAGG
For the molecule B3, in the series with MdMYB90-like [3], the binding result is reported as “no binding”.

B4: MYB1 probe (dsDNA)
DNA 1: CGGACCACTCAACGGAACAAATAAG
DNA 2: CTTATTTGTTCCGTTGAGTGGTCCG
Regarding B4, the binding result with MdMYB90-like [2] is recorded as “binds”.

B5: UFGTm probe (dsDNA)
DNA 1: TGGTACAAATGGTAACAATAAAATA
DNA 2: TATTTTATTGTTACCATTTGTACCA
With B5, the binding result with MdMYB90-like [4] is on record as “no binding”.

B6: CHS probe (dsDNA)
DNA 1: GACTAATTTCAACTGCTCCCAAAGT
DNA 2: ACTTTGGGAGCAGTTGAAATTAGTC
With B6, the binding result with MdMYB90-like [2] is listed as “binds”.

B7: BHLH3 probe (dsDNA)
DNA 1: CCTGCTCACTAACCAATCAAACCCA
DNA 2: TGGGTTTGATTGGTTAGTGAGCAGG
For the molecule B7, the binding result in the series with MdMYB90-like [2] is recorded as “binds”.

B8: MYB1m probe (dsDNA)
DNA 1: CGGACCACTTGGTAAAACAAATAAG
DNA 2: CTTATTTGTTTTACCAAGTGGTCCG
With B8, the binding result with MdMYB90-like [5] is “no binding”.
